Source: PMC4304825, “Six Amino Acid Residues in a 1200 Å2 Interface Mediate Binding of Factor VIII to an IgG4κ Inhibitory Antibody” (PLoS ONE, 2015)

Target: T1, von Willebrand factor (VWF) (UniProt P04275 764-2813)
T1 construct: von Willebrand factor; Immobilised by amine coupling
Assay: SPR; VWF attached to a CM4 chip by amine coupling at low density (200 RUs); BDD-FVIII proteins injected in a 3-fold concentration series from 0.22-18 nM, single-cycle kinetics; fit to a 1:1 model; Biacore T200
Conditions: both partners purified

Kd [nM]	koff [s⁻¹]	kon [M⁻¹ s⁻¹]	Binder
0.29	0.00069	2.4e+06	WT-BDD-FVIII (wild-type B-domain-deleted factor VIII) (natural protein) chain 1: ATRRYYLGAVELSWDYMQSDLGELPVDARFPPRVPKSFPFNTSVVYKKTLFVEFTDHLFNIAKPRPPWMGLLGPTIQAEVYDTVVITLKNMASHPVSLHAVGVSYWKASEGAEYDDQTSQREKEDDKVFPGGSHTYVWQVLKENGPMASDPLCLTYSYLSHVDLVKDLNSGLIGALLVCREGSLAKEKTQTLHKFILLFAVFDEGKSWHSETKNSLMQDRDAASARAWPKMHTVNGYVNRSLPGLIGCHRKSVYWHVIGMGTTPEVHSIFLEGHTFLVRNHRQASLEISPITFLTAQTLLMDLGQFLLFCHISSHQHDGMEAYVKVDSCPEEPQLRMKNNEEAEDYDDDLTDSEMDVVRFDDDNSPSFIQIRSVAKKHPKTWVHYIAAEEEDWDYAPLVLAPDDRSYKSQYLNNGPQRIGRKYKKVRFMAYTDETFKTREAIQHESGILGPLLYGEVGDTLLIIFKNQASRPYNIYPHGITDVRPLYSRRLPKGVKHLKDFPILPGEIFKYKWTVTVEDGPTKSDPRCLTRYYSSFVNMERDLASGLIGPLLICYKESVDQRGNQIMSDKRNVILFSVFDENRSWYLTENIQRFLPNPAGVQLEDPEFQASNIMHSINGYVFDSLQLSVCLHEVAYWYILSIGAQTDFLSVFFSGYTFKHKMVYEDTLTLFPFSGETVFMSMENPGLWILGCHNSDFRNRGMTALLKVSSCDKNTGDYYEDSYEDISAYLLSKNNAIEPR chain 2: EITRTTLQSDQEEIDYDDTISVEMKKEDFDIYDEDENQSPRSFQKKTRHYFIAAVERLWDYGMSSSPHVLRNRAQSGSVPQFKKVVFQEFTDGSFTQPLYRGELNEHLGLLGPYIRAEVEDNIMVTFRNQASRPYSFYSSLISYEEDQRQGAEPRKNFVKPNETKTYFWKVQHHMAPTKDEFDCKAWAYFSDVDLEKDVHSGLIGPLLVCHTNTLNPAHGRQVTVQEFALFFTIFDETKSWYFTENMERNCRAPCNIQMEDPTFKENYRFHAINGYIMDTLPGLVMAQDQRIRWYLLSMGSNENIHSIHFSGHVFTVRKKEEYKMALYNLYPGVFETVEMLPSKAGIWRVECLIGEHLHAGMSTLFLVYSNKCQTPLGMASGHIRDFQITASGQYGQWAPKLARLHYSGSINAWSTKEPFSWIKVDLLAPMIIHGIKTQGARQKFSSLYISQFIIMYSLDGKKWQTYRGNSTGTLMVFFGNVDSSGIKHNIFNPPIIARYIRLHPTHYSIRSTLRMELMGCDLNSCSMPLGMESKAISDAQITASSYFTNMFATWSPSKARLHLQGRSNAWRPQVNNPKEWLQVDFQKTMKVTGVTTQGVKSLLTSMYVKEFLISSSQDGHQWTLFFQNGKVKVFQGNQDSFTPVVNSLDPPLLTRYLRIHPQSWVHQIALRMEVLGCEAQDLY
0.2	0.00054	2.9e+06	BDD-FVIII-F2196K (natural protein) chain 1: ATRRYYLGAVELSWDYMQSDLGELPVDARFPPRVPKSFPFNTSVVYKKTLFVEFTDHLFNIAKPRPPWMGLLGPTIQAEVYDTVVITLKNMASHPVSLHAVGVSYWKASEGAEYDDQTSQREKEDDKVFPGGSHTYVWQVLKENGPMASDPLCLTYSYLSHVDLVKDLNSGLIGALLVCREGSLAKEKTQTLHKFILLFAVFDEGKSWHSETKNSLMQDRDAASARAWPKMHTVNGYVNRSLPGLIGCHRKSVYWHVIGMGTTPEVHSIFLEGHTFLVRNHRQASLEISPITFLTAQTLLMDLGQFLLFCHISSHQHDGMEAYVKVDSCPEEPQLRMKNNEEAEDYDDDLTDSEMDVVRFDDDNSPSFIQIRSVAKKHPKTWVHYIAAEEEDWDYAPLVLAPDDRSYKSQYLNNGPQRIGRKYKKVRFMAYTDETFKTREAIQHESGILGPLLYGEVGDTLLIIFKNQASRPYNIYPHGITDVRPLYSRRLPKGVKHLKDFPILPGEIFKYKWTVTVEDGPTKSDPRCLTRYYSSFVNMERDLASGLIGPLLICYKESVDQRGNQIMSDKRNVILFSVFDENRSWYLTENIQRFLPNPAGVQLEDPEFQASNIMHSINGYVFDSLQLSVCLHEVAYWYILSIGAQTDFLSVFFSGYTFKHKMVYEDTLTLFPFSGETVFMSMENPGLWILGCHNSDFRNRGMTALLKVSSCDKNTGDYYEDSYEDISAYLLSKNNAIEPR chain 2: EITRTTLQSDQEEIDYDDTISVEMKKEDFDIYDEDENQSPRSFQKKTRHYFIAAVERLWDYGMSSSPHVLRNRAQSGSVPQFKKVVFQEFTDGSFTQPLYRGELNEHLGLLGPYIRAEVEDNIMVTFRNQASRPYSFYSSLISYEEDQRQGAEPRKNFVKPNETKTYFWKVQHHMAPTKDEFDCKAWAYFSDVDLEKDVHSGLIGPLLVCHTNTLNPAHGRQVTVQEFALFFTIFDETKSWYFTENMERNCRAPCNIQMEDPTFKENYRFHAINGYIMDTLPGLVMAQDQRIRWYLLSMGSNENIHSIHFSGHVFTVRKKEEYKMALYNLYPGVFETVEMLPSKAGIWRVECLIGEHLHAGMSTLFLVYSNKCQTPLGMASGHIRDFQITASGQYGQWAPKLARLHYSGSINAWSTKEPFSWIKVDLLAPMIIHGIKTQGARQKFSSLYISQFIIMYSLDGKKWQTYRGNSTGTLMVFFGNVDSSGIKHNIFNPPIIARYIRLHPTHYSIRSTLRMELMGCDLNSCSMPLGMESKAISDAQITASSYKTNMFATWSPSKARLHLQGRSNAWRPQVNNPKEWLQVDFQKTMKVTGVTTQGVKSLLTSMYVKEFLISSSQDGHQWTLFFQNGKVKVFQGNQDSFTPVVNSLDPPLLTRYLRIHPQSWVHQIALRMEVLGCEAQDLY
0.25	0.00067	2.7e+06	BDD-FVIII-M2199A (natural protein) chain 1: ATRRYYLGAVELSWDYMQSDLGELPVDARFPPRVPKSFPFNTSVVYKKTLFVEFTDHLFNIAKPRPPWMGLLGPTIQAEVYDTVVITLKNMASHPVSLHAVGVSYWKASEGAEYDDQTSQREKEDDKVFPGGSHTYVWQVLKENGPMASDPLCLTYSYLSHVDLVKDLNSGLIGALLVCREGSLAKEKTQTLHKFILLFAVFDEGKSWHSETKNSLMQDRDAASARAWPKMHTVNGYVNRSLPGLIGCHRKSVYWHVIGMGTTPEVHSIFLEGHTFLVRNHRQASLEISPITFLTAQTLLMDLGQFLLFCHISSHQHDGMEAYVKVDSCPEEPQLRMKNNEEAEDYDDDLTDSEMDVVRFDDDNSPSFIQIRSVAKKHPKTWVHYIAAEEEDWDYAPLVLAPDDRSYKSQYLNNGPQRIGRKYKKVRFMAYTDETFKTREAIQHESGILGPLLYGEVGDTLLIIFKNQASRPYNIYPHGITDVRPLYSRRLPKGVKHLKDFPILPGEIFKYKWTVTVEDGPTKSDPRCLTRYYSSFVNMERDLASGLIGPLLICYKESVDQRGNQIMSDKRNVILFSVFDENRSWYLTENIQRFLPNPAGVQLEDPEFQASNIMHSINGYVFDSLQLSVCLHEVAYWYILSIGAQTDFLSVFFSGYTFKHKMVYEDTLTLFPFSGETVFMSMENPGLWILGCHNSDFRNRGMTALLKVSSCDKNTGDYYEDSYEDISAYLLSKNNAIEPR chain 2: EITRTTLQSDQEEIDYDDTISVEMKKEDFDIYDEDENQSPRSFQKKTRHYFIAAVERLWDYGMSSSPHVLRNRAQSGSVPQFKKVVFQEFTDGSFTQPLYRGELNEHLGLLGPYIRAEVEDNIMVTFRNQASRPYSFYSSLISYEEDQRQGAEPRKNFVKPNETKTYFWKVQHHMAPTKDEFDCKAWAYFSDVDLEKDVHSGLIGPLLVCHTNTLNPAHGRQVTVQEFALFFTIFDETKSWYFTENMERNCRAPCNIQMEDPTFKENYRFHAINGYIMDTLPGLVMAQDQRIRWYLLSMGSNENIHSIHFSGHVFTVRKKEEYKMALYNLYPGVFETVEMLPSKAGIWRVECLIGEHLHAGMSTLFLVYSNKCQTPLGMASGHIRDFQITASGQYGQWAPKLARLHYSGSINAWSTKEPFSWIKVDLLAPMIIHGIKTQGARQKFSSLYISQFIIMYSLDGKKWQTYRGNSTGTLMVFFGNVDSSGIKHNIFNPPIIARYIRLHPTHYSIRSTLRMELMGCDLNSCSMPLGMESKAISDAQITASSYFTNAFATWSPSKARLHLQGRSNAWRPQVNNPKEWLQVDFQKTMKVTGVTTQGVKSLLTSMYVKEFLISSSQDGHQWTLFFQNGKVKVFQGNQDSFTPVVNSLDPPLLTRYLRIHPQSWVHQIALRMEVLGCEAQDLY
